Common to all, as to experiment: hydrolysis kinetics, product by liquid chromatography
Holding throughout (format): biochemical, Synechocystis sp. PCC 6803

The test system of one series is N#CCc1cccc(Cl)c1. The source says: (§1) hydrolysis kinetics, product by liquid chromatography on nitrilase (WT)
The subject of another series is N#CCc1ccccc1Cl.
From the text: as §1

The next series relates to N#CCc1ccc(Cl)cc1.
From the text: as §1

Here are results for three substances from publication PMC5052520, “The Important Role of Halogen Bond in Substrate Selectivity of Enzymatic Catalysis” (Scientific Reports, 2016).

Turning to “nitrilase (WT) (Synechocystis sp. PCC 6803 substr. Kazusa)”, in the series on N#CCc1cccc(Cl)c1, the Km came to 460 ± 40 µM, the kcat is 0.27 ± 0.02 s⁻¹ and the kcat/Km was found to be 590 M⁻¹ s⁻¹.
Regarding “nitrilase (WT) (Synechocystis sp. PCC 6803 substr. Kazusa; H141W)”, in the series on N#CCc1ccccc1Cl, the Km was 650 ± 180 µM, the kcat stood at 0.21 ± 0.05 s⁻¹ and the kcat/Km amounted to 330 M⁻¹ s⁻¹.
As for “nitrilase (WT) (Synechocystis sp. PCC 6803 substr. Kazusa; T54Y)”, in the series with N#CCc1ccc(Cl)cc1, the Km turned out to be 710 ± 30 µM, the kcat was determined as 0.56 ± 0.07 s⁻¹ and the kcat/Km worked out at 560 M⁻¹ s⁻¹. In the series on N#CCc1cccc(Cl)c1, the Km was found to be 9600 ± 270 µM, the kcat worked out at 0.08 ± 0.13 s⁻¹ and the kcat/Km amounted to 10 M⁻¹ s⁻¹.

The term Km denotes the concentration of substrate that gives half-maximal velocity. What is called kcat is the number of substrate molecules converted per active site and unit of time at saturation. As usually defined, the kcat/Km is the second-order rate constant that governs catalysis at low substrate concentration.
